Test results reported in paper doi:10.1101/2022.04.26.489556.

Molecular target: T1, Rv1019 (TetR family regulator) (UniProt P96381 1-197)
T1 sequence: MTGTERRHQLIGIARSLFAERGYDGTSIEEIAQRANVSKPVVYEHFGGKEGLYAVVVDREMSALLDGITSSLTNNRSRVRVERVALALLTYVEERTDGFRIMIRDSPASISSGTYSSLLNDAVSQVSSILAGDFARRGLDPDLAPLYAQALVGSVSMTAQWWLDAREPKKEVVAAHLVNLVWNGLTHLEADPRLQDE
Test: EMSA

B1: MSMEG_1885 palindrome (MS_1886 PAL oligos) (dsDNA)
DNA 1: TAAGTTACGGTACCGTAGGTTG
DNA 2: CAACCTACGGTACCGTAACTTA
  binding result: binds
